{"source": "the supplement of paper PMC10567573", "parents": {"B1": {"name": "EHMT1 (parent)", "chain": "EEINKNISDFGRQQLLPPFPSLHQ"}}, "data": [{"variants_of": "B1", "assay": "protein stability index of a GFP-peptide fusion (GPS, HEK-293T) (PSI 1-6); higher = more stable", "conditions": "c terminus: a fixed tail appended", "values": [{"variant": "LEINKNISDFGRQQLLPPFPSLHQ", "protein stability index": 2.42}, {"variant": "QEINKNISDFGRQQLLPPFPSLHQ", "protein stability index": 2.73}, {"variant": "VEINKNISDFGRQQLLPPFPSLHQ", "protein stability index": 2.22}, {"variant": "HEINKNISDFGRQQLLPPFPSLHQ", "protein stability index": 2.56}, {"variant": "PEINKNISDFGRQQLLPPFPSLHQ", "protein stability index": 2.54}, {"variant": "YEINKNISDFGRQQLLPPFPSLHQ", "protein stability index": 2.11}, {"variant": "KEINKNISDFGRQQLLPPFPSLHQ", "protein stability index": 2.74}, {"variant": "MEINKNISDFGRQQLLPPFPSLHQ", "protein stability index": 2.35}, {"variant": "IEINKNISDFGRQQLLPPFPSLHQ", "protein stability index": 1.76}, {"variant": "SEINKNISDFGRQQLLPPFPSLHQ", "protein stability index": 3.23}, {"variant": "REINKNISDFGRQQLLPPFPSLHQ", "protein stability index": 2.55}, {"variant": "TEINKNISDFGRQQLLPPFPSLHQ", "protein stability index": 2.9}, {"variant": "NEINKNISDFGRQQLLPPFPSLHQ", "protein stability index": 2.44}, {"variant": "WEINKNISDFGRQQLLPPFPSLHQ", "protein stability index": 1.91}, {"variant": "EELNKNISDFGRQQLLPPFPSLHQ", "protein stability index": 2.95}, {"variant": "EEQNKNISDFGRQQLLPPFPSLHQ", "protein stability index": 2.69}, {"variant": "EECNKNISDFGRQQLLPPFPSLHQ", "protein stability index": 2.76}, {"variant": "EETNKNISDFGRQQLLPPFPSLHQ", "protein stability index": 3.11}, {"variant": "EEKNKNISDFGRQQLLPPFPSLHQ", "protein stability index": 3.02}, {"variant": "EEGNKNISDFGRQQLLPPFPSLHQ", "protein stability index": 3.01}, {"variant": "EEHNKNISDFGRQQLLPPFPSLHQ", "protein stability index": 2.71}, {"variant": "EEYNKNISDFGRQQLLPPFPSLHQ", "protein stability index": 2.7}, {"variant": "EERNKNISDFGRQQLLPPFPSLHQ", "protein stability index": 2.69}, {"variant": "EESNKNISDFGRQQLLPPFPSLHQ", "protein stability index": 3.13}, {"variant": "EEVNKNISDFGRQQLLPPFPSLHQ", "protein stability index": 2.9}, {"variant": "EEENKNISDFGRQQLLPPFPSLHQ", "protein stability index": 3.78}, {"variant": "EEPNKNISDFGRQQLLPPFPSLHQ", "protein stability index": 2.68}, {"variant": "EEANKNISDFGRQQLLPPFPSLHQ", "protein stability index": 3.1}, {"variant": "EEDNKNISDFGRQQLLPPFPSLHQ", "protein stability index": 3.77}, {"variant": "EEFNKNISDFGRQQLLPPFPSLHQ", "protein stability index": 2.91}, {"variant": "EENNKNISDFGRQQLLPPFPSLHQ", "protein stability index": 3.31}, {"variant": "EEWNKNISDFGRQQLLPPFPSLHQ", "protein stability index": 2.39}, {"variant": "EEMNKNISDFGRQQLLPPFPSLHQ", "protein stability index": 2.74}, {"variant": "EEINKNMSDFGRQQLLPPFPSLHQ", "protein stability index": 3.03}, {"variant": "EEINKNRSDFGRQQLLPPFPSLHQ", "protein stability index": 2.42}, {"variant": "EEINKNLSDFGRQQLLPPFPSLHQ", "protein stability index": 2.97}, {"variant": "EEINKNESDFGRQQLLPPFPSLHQ", "protein stability index": 3.38}, {"variant": "EEINKNQSDFGRQQLLPPFPSLHQ", "protein stability index": 3.58}, {"variant": "EEINKNYSDFGRQQLLPPFPSLHQ", "protein stability index": 2.73}, {"variant": "EEINKNPSDFGRQQLLPPFPSLHQ", "protein stability index": 2.38}, {"variant": "EEINKNFSDFGRQQLLPPFPSLHQ", "protein stability index": 3.31}, {"variant": "EEINKNASDFGRQQLLPPFPSLHQ", "protein stability index": 2.96}, {"variant": "EEINKNGSDFGRQQLLPPFPSLHQ", "protein stability index": 3.3}, {"variant": "EEINKNNSDFGRQQLLPPFPSLHQ", "protein stability index": 3.72}, {"variant": "EEINKNVSDFGRQQLLPPFPSLHQ", "protein stability index": 2.98}, {"variant": "EEINKNCSDFGRQQLLPPFPSLHQ", "protein stability index": 2.88}, {"variant": "EEINKNKSDFGRQQLLPPFPSLHQ", "protein stability index": 2.79}, {"variant": "EEINKNTSDFGRQQLLPPFPSLHQ", "protein stability index": 2.63}, {"variant": "EEINKNDSDFGRQQLLPPFPSLHQ", "protein stability index": 3.21}, {"variant": "EEINKNSSDFGRQQLLPPFPSLHQ", "protein stability index": 2.83}, {"variant": "EEINKNHSDFGRQQLLPPFPSLHQ", "protein stability index": 2.73}, {"variant": "EEINKNWSDFGRQQLLPPFPSLHQ", "protein stability index": 2.52}, {"variant": "EHINKNISDFGRQQLLPPFPSLHQ", "protein stability index": 1.96}, {"variant": "EPINKNISDFGRQQLLPPFPSLHQ", "protein stability index": 2.65}, {"variant": "EVINKNISDFGRQQLLPPFPSLHQ", "protein stability index": 2.12}, {"variant": "EDINKNISDFGRQQLLPPFPSLHQ", "protein stability index": 2.72}, {"variant": "EWINKNISDFGRQQLLPPFPSLHQ", "protein stability index": 1.73}, {"variant": "EQINKNISDFGRQQLLPPFPSLHQ", "protein stability index": 2.36}, {"variant": "EGINKNISDFGRQQLLPPFPSLHQ", "protein stability index": 2.51}, {"variant": "ESINKNISDFGRQQLLPPFPSLHQ", "protein stability index": 2.35}, {"variant": "ECINKNISDFGRQQLLPPFPSLHQ", "protein stability index": 2.35}, {"variant": "EIINKNISDFGRQQLLPPFPSLHQ", "protein stability index": 2.14}, {"variant": "ENINKNISDFGRQQLLPPFPSLHQ", "protein stability index": 2.29}, {"variant": "ETINKNISDFGRQQLLPPFPSLHQ", "protein stability index": 2.85}, {"variant": "EYINKNISDFGRQQLLPPFPSLHQ", "protein stability index": 1.58}, {"variant": "EFINKNISDFGRQQLLPPFPSLHQ", "protein stability index": 1.74}, {"variant": "EAINKNISDFGRQQLLPPFPSLHQ", "protein stability index": 2.3}, {"variant": "EKINKNISDFGRQQLLPPFPSLHQ", "protein stability index": 2.64}, {"variant": "EMINKNISDFGRQQLLPPFPSLHQ", "protein stability index": 2.24}, {"variant": "ELINKNISDFGRQQLLPPFPSLHQ", "protein stability index": 2.21}, {"variant": "ERINKNISDFGRQQLLPPFPSLHQ", "protein stability index": 2.17}, {"variant": "EEIYKNISDFGRQQLLPPFPSLHQ", "protein stability index": 2.01}, {"variant": "EEIVKNISDFGRQQLLPPFPSLHQ", "protein stability index": 2.53}, {"variant": "EEIGKNISDFGRQQLLPPFPSLHQ", "protein stability index": 2.48}, {"variant": "EEISKNISDFGRQQLLPPFPSLHQ", "protein stability index": 2.45}, {"variant": "EEIMKNISDFGRQQLLPPFPSLHQ", "protein stability index": 2.52}, {"variant": "EEIIKNISDFGRQQLLPPFPSLHQ", "protein stability index": 2.02}, {"variant": "EEIWKNISDFGRQQLLPPFPSLHQ", "protein stability index": 2.15}, {"variant": "EEIPKNISDFGRQQLLPPFPSLHQ", "protein stability index": 2.69}, {"variant": "EEIKKNISDFGRQQLLPPFPSLHQ", "protein stability index": 2.55}, {"variant": "EEILKNISDFGRQQLLPPFPSLHQ", "protein stability index": 2.69}, {"variant": "EEIFKNISDFGRQQLLPPFPSLHQ", "protein stability index": 2.15}, {"variant": "EEITKNISDFGRQQLLPPFPSLHQ", "protein stability index": 2.33}, {"variant": "EEIAKNISDFGRQQLLPPFPSLHQ", "protein stability index": 2.63}, {"variant": "EEIRKNISDFGRQQLLPPFPSLHQ", "protein stability index": 2.73}, {"variant": "EEICKNISDFGRQQLLPPFPSLHQ", "protein stability index": 2.45}, {"variant": "EEIEKNISDFGRQQLLPPFPSLHQ", "protein stability index": 2.86}, {"variant": "EEIDKNISDFGRQQLLPPFPSLHQ", "protein stability index": 3.26}, {"variant": "EEIQKNISDFGRQQLLPPFPSLHQ", "protein stability index": 2.7}, {"variant": "EEIHKNISDFGRQQLLPPFPSLHQ", "protein stability index": 2.94}, {"variant": "EEINKHISDFGRQQLLPPFPSLHQ", "protein stability index": 2.4}, {"variant": "EEINKRISDFGRQQLLPPFPSLHQ", "protein stability index": 2.1}, {"variant": "EEINKGISDFGRQQLLPPFPSLHQ", "protein stability index": 2.91}, {"variant": "EEINKLISDFGRQQLLPPFPSLHQ", "protein stability index": 1.97}]}]}
